These results are taken from PMC8815872, “A novel dual-labeled small peptide as a multimodal imaging agent for targeting wild-type EGFR in tumors” (PLoS ONE, 2022).

Where two headings read alike, the source gives them in different places. Where a SMILES comes first, the peptide text is derived from it. The star is where a group is joined. 5TAMRA = CN(C)c1ccc2c(c1)Oc1cc(N(C)C)ccc1C21OC(=O)c2cc(C(=O)*)ccc21

Series [1] concerns NCI-H460 cells (wtEGFR-positive). The series is described as follows: Cellular uptake using confocal microscopy, NCI-H460 cells. In kind it is cell-based, human. To be noted: 200 nM, 37°C, 1 h, serum free medium. The procedure:
(§1) NCI-H460 and SW620 cells (1 × 10^5 cells) were cultured on the top of a cover-slip slide for 24 h at 37°C. The medium was replaced with fresh serum free medium (500 μL) containing Tc-99m SYPIPDT-ECG-TAMRA (200 nM). Cells were then incubated at 37°C for 1 h. These cells were rinsed three times with phosphate-buffered saline (PBS). The cell were stained with anti-human wtEGFR antibody (cat. 4267S; Cell Signaling Technology, Danvers, MA, USA) and Alexa Fluor® 488-conjugated goat anti-rabbit secondary antibody (cat. 111-545-003, 1:100 dilution; Jackson Immuno Research Inc., West Grove, PA, USA). The slides were covered with fluorescent mounting medium (Dako, Glostrup, Denmark) and closed with cover glasses. The confocal microscopic study was performed with a FV1200 confocal microscope (Olympus, Pittsburgh, PA, USA) with a 100× oil immersion lens.

Series [2] can be described thus: in vivo. The note with it: female, athymic BALB/c nu/nu, mouse, total radioactivity, Mean %ID/g (SD).
Procedure: (§2) Six-week-old female homozygous athymic BALB/c nu/nu mice (weighing 16–18 g) were purchased from Damul Science (Daejeon, Korea) and kept in cages. They were provided free access to food and tap water. After one week of adaptation to laboratory conditions, the mice were subcutaneously inoculated with 1 × 10^7 NCI-H460 (wtEGFR-positive) and SW620 (wtEGFR-negative, as an internal reference) cells (in 0.1 ml PBS) in both sides of the anterior chest region, respectively. The tumors were allowed to grow to about 300 to 400 mm^3 in volume. Tumor volume was calculated using the formula: V (mm^3) = 0.5 × a × b^2, where a and b represent the long and perpendicular short diameters of the tumor by caliper measurements. Approximately 21 days after inoculation, gamma camera imaging and biodistribution studies were performed.
(§3) Following the in vivo gamma camera imaging study, mice were sacrificed by cervical dislocation after anesthesia by intraperitoneal injection of 100 mg/kg bodyweight ketamine (n = 5).
(§4) Tissues of tumors and selected organs were weighed and collected into pre-weighed gamma counter tubes. The radioactivity of the tissues were counted using a gamma counter (1480 Wizard 3; PerkinElmer Life and Analytical Sciences) and counts per minute were decay-corrected. Results are expressed as a percentage injected dose per gram of wet tissue (%ID/g). Total activities injected per animal were calculated by evaluating the difference between pre-injection syringe counts and remaining syringe counts after injection.
The test system of series [3] is mice bearing NCI-H460 and SW620 tumors. The series is described as follows: Ex vivo fluorescent imaging of excised organs and tumors. The note with it: excised tumors after in vivo gamma camera imaging, n = 5. The method, then: Exposure time was 2.0 s per image. The images were analyzed using the dedicated software.
Series [4] has the same test system.
Procedure: as §2, §3, §4
The nature of series [5]: Radiochemical stability in saline. In kind it is physicochemical. The note with it: room temperature, silica capillary column radio-chromatography, mean ± SD, n = 3. The method, then: To evaluate the radiochemical stability of the Tc-99m peptide complex, the labeled complex (0.1 ml) was incubated with 1 ml of saline at room temperature and freshly collected human serum at 37°C. Samples were collected at 30 min and at 1, 3, and 24 h and were analyzed using capillary column with saline (Rf of Tc-99m SYPIPDT-ECG-TAMRA and free pertechnetate = 0.9–1.0; Rf of colloid = 0.0–0.1) and acetone (Rf of free pertechnetate = 0.9–1.0; Rf of Tc-99m SYPIPDT-ECG-TAMRA and colloid = 0.0–0.1) as mobile phases. All experiments were conducted in triplicate (n = 3).

The subject of series [6] is NCI-H460 and SW620 tumor tissue. The series is described as follows: Confocal microscopy with immunohistochemical staining of tumor tissue. The format is in vivo, mice. To be noted: frozen tumor slices. The procedure: After the ex vivo imaging study, tumor tissues were snap-frozen in liquid nitrogen. Frozen tumor tissues were cut into slices (10 μm in thickness). After drying at room temperature, slices were fixed with ice-cold acetone for 10 min and then air dried at room temperature for 20 min. Tumor sections were maintained with 5% goat serum for 30 min at room temperature for blocking of nonspecific binding. Then, tumor sections were stained with anti-human wtEGFR antibody (cat. 4267S; Cell Signaling Technology, Danvers, MA, USA) for 1 h at room temperature. After being rinsed with PBS buffer, tumor slides were incubated with Alexa Fluor® 488-conjugated goat anti-rabbit secondary antibody (cat. 111-545-003, 1:100 dilution; Jackson Immuno Research Inc., West Grove, PA, USA). After being washed three times with PBS, tumor slides covered using Prolong® Gold Antifade Reagent with 4’,6-diamidino-2-phenylindole (DAPI; Invitrogen, Carlsbad, CA, USA) and closed with cover glasses. Confocal microscopic study was performed using a FV1200 confocal microscope (Olympus) with a 60× oil immersion lens.

For series [7], the system named is NCI-H460 cells (wtEGFR-positive). The series is described as follows: Saturation binding study, NCI-H460 cells. To be noted: 37°C, 1 h. Details: species or system human. The procedure:
NCI-H460 and SW620 cells were cultured in a humidified atmosphere with 5% carbon dioxide at 37°C. The cells were maintained in Dulbecco modified Eagle medium supplemented with 10% fetal bovine serum, streptomycin (100 μg/ml), and penicillin (100 U/ml). The cells were used for experiments and studies once about 80% confluence had been reached.
The binding affinities of Tc-99m SYPIPDT-ECG-TAMRA for NCI-H460 and SW620 cells were evaluated by saturation binding studies as described previously. Briefly, NCI-H460 and SW620 cells were plated into 96-well plates at a density of 1 × 10^4 cells/well and cultured overnight. Cells were washed twice (5 min each) using ice-cold binding buffer (25 mM HEPES and 1% bovine serum albumin). A concentration gradient (0–2,000 nM) of Tc-99m SYPIPDT-ECG-TAMRA was added to the wells and the cells were maintained at 37°C for 1 h. The total volume of each well was 200 μl. After cells were washed twice using ice-cold binding buffer, the cells of each well were obtained for gamma counting. Radioactivities of collected cells were measured using a 1480 Wizard 3 gamma counter (PerkinElmer Life and Analytical Sciences, Wallingford, CT, USA). The binding affinity value (Kd) was calculated by non-linear regression models of GraphPad Prism software version 5.03 (GraphPad Software, La Jolla, CA, USA). Each data point is the average value of four determinations.

Series [8] deals with EGFR. The note with it: concentration dependent; cited from earlier work. The text has this: A major drawback of these imaging agents is their large size, which hinders efficient penetration into the targeted tissue and prevents rapid clearance from the non-targeted tissues. Therefore, efforts have been made to reduce the size of the targeting agents. Monoclonal antibody fragments such as Fab′, scFv, Affibody and Nanobody, have been investigated. However, the antibody fragments show reduced binding affinity for their target compared to the parental antibody, and their stability also decreases over time. In the present study, we tried to overcome these drawbacks by utiliz ...

Series [9] has as its system SW620 cells (wtEGFR-negative). The series is described as follows: Cellular uptake using confocal microscopy, SW620 cells. To be noted: 200 nM, 37°C, 1 h, serum free medium. The format is cell-based, human. The method, then: as §1
Where [10] appears, read: NCI-H460 tumor (wtEGFR-positive).

Turning to `CC[C@H](C)[C@H](NC(=O)[C@@H]1CCCN1C(=O)[C@H](Cc1ccc(O)cc1)NC(=O)[C@@H](N)CO)C(=O)N1CCC[C@H]1C(=O)N[C@@H](CC(=O)O)C(=O)N[C@H](C(=O)NCC(=O)N[C@@H](Cc1c[nH]cn1)C(=O)N[C@@H](CCC(=O)O)C(=O)NCC(=O)N[C@@H](CCC(=O)O)C(=O)N[C@@H](CS)C(=O)NCC(=O)N[C@@H](CCCCNC(=O)c1ccc2c(c1)C(=O)OC21c2ccc(N(C)C)cc2Oc2cc(N(C)C)ccc21)C(=O)O)[C@@H](C)O` [Tc-99m SYPIPDT-ECG-TAMRA, Tc-99m SYPIPDT-GHEG-ECG-K-tetramethylrhodamine, metal not drawn] (H-SYPIPDTGHEGECGK(5TAMRA)-OH), in series [1], the “fluorescence activity of TAMRA on cells (confocal microscopy)” value was “strong fluorescence activity”. In addition, the tissue uptake at 1 h in series [2] (Blood) worked out at 3.22 %ID/g; in series [2] (Colon), 1.11 %ID/g; in [2] (Heart) it was 1.43 %ID/g; in series [2] (Kidneys), 21.1 %ID/g; in series [2] (Liver), 1.9 %ID/g; in [2] (Lungs) it was 2.23 %ID/g. Also, the tissue uptake at 1 h turned out to be 0.79 %ID/g in series [2] (Muscles), 1.91 %ID/g in series [2] (setting [10]), 1.27 %ID/g in series [2] (SW620 tumor (wtEGFR-negative)) and 1.68 %ID/g in [2] (Stomach). Further, the tissue uptake at 3 h in series [2] (Blood) is 0.87 %ID/g; in [2] (Colon), 0.42 %ID/g; in series [2] (Heart), 0.45 %ID/g; in [2] (Kidneys) it was 12.4 %ID/g; in series [2] (Liver) it was 1.07 %ID/g; in series [2] (Lungs), 0.61 %ID/g. Also, the tissue uptake at 3 h in series [2] (Muscles) was 0.25 %ID/g; in series [2] (setting [10]) it was 1.7 %ID/g; in series [2] (SW620 tumor (wtEGFR-negative)), 0.54 %ID/g; in series [2] (Stomach) it was 0.37 %ID/g. Further, the “ex vivo fluorescent activity, NCI-H460 tumor versus SW620 tumor” value in series [3] is “significantly higher fluorescent activity”. Besides, the “tumor to normal muscle ratio of the %ID/g values” in series [4] (1 h after injection) is on record as 2.45 ± 0.22; in [4] (3 h after injection), 7.13 ± 2.00. Also, the “intact percentage incubated in saline” value in series [5] (30 min, 0.1 ml complex in 1 ml) is reported as 95.1 ± 0.6%; in series [5] (1 h) it was 94.7 ± 1.3%; in [5] (3 h), 93.9 ± 1.1%; in series [5] (24 h), 92.1 ± 1.4%. Besides, in series [6] (NCI-H460 tumor), the “fluorescence within NCI-H460 tumor tissue (confocal microscopy)” value is “significant”. For the same compound, the “fluorescent activity of TAMRA in SW620 tumor tissue (confocal microscopy)” value in series [6] (SW620 tumor) is “barely detected”. Further, the dissociation constant (Kd) in series [7] (0-2,000 nM, gamma counting, non-linear regression, four determinations per point, read-out: binding affinity value (Kd) for NCI-H460 cells) came out at 76.5 ± 15.8 nM. For the same compound, in [7] (NCI-H460 cells), the Bmax worked out at 3652 ± 189 fmol/mg protein.

As to “SYPIPDT [small 7-mer peptide ligand for wild-type EGFR identified by phage display (Hamzeh-Mivehroud et al.)]”, in series [8], the “diminished the increased EGF-dependent phosphorylation of EGFR” value is reported as 44%.

Consider “SYPIPDT-GHEG-ECG-K-tetramethylrhodamine [SYPIPDT-ECG-TAMRA, unlabeled precursor peptide with GHEG linker, ECG chelator and TAMRA dye]”, for which the “fluorescence activity of TAMRA on cells (confocal microscopy)” value in series [9] is given as “barely detectable”; in series [1], “strong fluorescence activity”.

The tissue uptake is the share of the injected amount in each gram of the tissue. A word on the Kd: it is the equilibrium constant for the complex coming apart.
